Measured values reported in the supplement of paper PMC10724198.
± gives the standard deviation of the averaged measurements.

Tested on: Saccharomyces cerevisiae
Assay: protein stability index of tFT-peptide fusion (C-terminal peptide) (PSI (0-1 scale)); higher = more stable (slower turnover)
Details: genetic background: wild type; temperature: 30 C
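Also: PSI is a weighted mean of sequencing reads over stability bins, variants kept only with over 10 reads, mCherry proximal and sfGFP distal, peptide attached via GGGS linker.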

Sequence	protein stability index
PLHLPPPFSPRP	0.7333 ± 0.0063
PLHPLTLPHLPT	0.665 ± 0.092
PLHSRPTRPKLE	0.71 ± 0.092
PLIASPQPPFPT	0.6692 ± 0.0036
PLKKLTRIIPKL	0.747 ± 0.1
PLLALANSPLYR	0.6708 ± 0.005
PLLCPASIHVTL	0.679 ± 0.046
PLLEGRRRKSGG	0.635 ± 0.02
PLLFGGGGVSVL	0.70247 ± 0.00036
PLLFPSSPLPPS	0.63 ± 0.036
PLLGLFTRYFDT	0.7 ± 0.088
PLLLLLPALPPL	0.679 ± 0.026
PLLPILTSPPRR	0.71 ± 0.029
PLLPPLSPPLPS	0.7 ± 0.0078
PLLPPPLFSLLR	0.681 ± 0.015
PLLPPPPSLRSP	0.747 ± 0.1
PLLPRPPPLPPP	0.703 ± 0.055
PLLRPTRLLPET	0.699 ± 0.093
PLLTPLCSVSHS	0.689 ± 0.0072
PLNALLHSNPDK	0.711 ± 0.1
PLPCSPRLRLSF	0.646 ± 0.036
PLPLFPLPPVAP	0.66 ± 0.012
PLPLPPLPPPLP	0.656 ± 0.021

Sequence	protein stability index
PLPLPPPPHCLS	0.702 ± 0.027
PLPLSSSLHSQR	0.702 ± 0.0084
PLPPAARPPSAL	0.729 ± 0.015
PLPPAPPPPPPP	0.728 ± 0.029
PLPPLPLAPSLP	0.708 ± 0.065
PLPPPFLHLPPP	0.683 ± 0.036
PLPPPGRPPLLP	0.639 ± 0.12
PLPPPPFSVSPP	0.724 ± 0.012
PLPPPPLPPLPP	0.702 ± 0.028
PLPPPPRPRLPL	0.764 ± 0.047
PLPPPPSPLPHF	0.692 ± 0.013
PLPPPPVPPTPS	0.606 ± 0.012
PLPPPVPPPPPP	0.66 ± 0.017
PLPPRLPSPPSS	0.742 ± 0.044
PLPPRPAPPSSS	0.681 ± 0.015
PLPPRPPSPPPR	0.699 ± 0.037
PLPPSPYPSPSP	0.661 ± 0.028
PLPRLTRPSPPR	0.681 ± 0.067
PLPRPPPPPPPS	0.7 ± 0.048
PLPSAPVPPSAS	0.71002 ± 0.0003
PLQPRVLPSPRR	0.688 ± 0.0011
PLRISPPPAPHP	0.7251 ± 0.0025
PLRSFSLRPFPL	0.775 ± 0.06

Sequence	protein stability index
PLRVPPPPCSRS	0.722 ± 0.1
PLSCSPPLLSPS	0.678 ± 0.0089
PLSLAPPPLPPY	0.671 ± 0.061
PLSLFPSSQCWS	0.771 ± 0.038
PLSPPPLPFPLL	0.589 ± 0.0018
PLSPSAAPSAPS	0.737 ± 0.1
PLSTCLAARCPL	0.725 ± 0.085
PLSTFSLSSFTV	0.691 ± 0.045
PLTFGLGPVNLP	0.683 ± 0.054
PLTPCPSATPAY	0.648 ± 0.021
PLTPVRCSICSV	0.64 ± 0.037
PLTRPTDNNPSN	0.774 ± 0.081
PLVFFAGLFLVD	0.509 ± 0.041
PLVSGMLTSHLA	0.6613 ± 0.0014
PLVSPPPLPHRP	0.69 ± 0.02
PLYLAYKDTLLS	0.69 ± 0.035
PLYPPLPTSLSS	0.769 ± 0.027
PLYPPPVNIPPT	0.81 ± 0.067
PLYSPPPHRYLL	0.653 ± 0.019
PMLGMSTLGDRF	0.657 ± 0.038
PMNVSDPRKVGR	0.556 ± 0.037
PNCAPLTAPRRR	0.7159 ± 0.0069
PNCTLVDSCWSI	0.699 ± 0.022

Sequence	protein stability index
PNPPNSSNPPSP	0.7013 ± 0.0031
PNSPRCAIASPL	0.702 ± 0.046
PPAAPPPPPLPP	0.735 ± 0.039
PPAAPSPPPPRP	0.719 ± 0.012
PPADKRILQQIR	0.692 ± 0.039
PPAHPPPRLHPP	0.541 ± 0.018
PPALHPPPLPPR	0.646 ± 0.028
PPALPLFPNAAG	0.709 ± 0.049
PPALPPCRSRLV	0.72 ± 0.049
PPALRPSPPLSP	0.698 ± 0.065
PPAPFLLNPVPP	0.727 ± 0.015
PPAPLALPRLPS	0.715 ± 0.061
PPAPLLLPLSRP	0.735 ± 0.0098
PPAPPAFPRFGT	0.703 ± 0.0051
PPAPPHALPPGP	0.671 ± 0.033
PPAPPPADLGPP	0.644 ± 0.093
PPAPPPAPPHSS	0.633 ± 0.061
PPAPPPHPPLPP	0.706 ± 0.043
PPAPPPPPIRPP	0.696 ± 0.033
PPARHSPIFPVH	0.786 ± 0.022
PPASPPAYVTHP	0.685 ± 0.049
PPASSARPLLFL	0.6664 ± 0.0053
PPCPPPPAPPPP	0.687 ± 0.044

Sequence	protein stability index
PPCVSGHPLRYS	0.727 ± 0.045
PPDGRPQEVWVP	0.72 ± 0.037
PPDHLTHPHIVN	0.693 ± 0.013
PPDLPPPPPPPT	0.7 ± 0.055
PPDPNCLPKQTS	0.752 ± 0.058
PPDPSTLSTSPS	0.689 ± 0.042
PPEPPLSSLRRP	0.674 ± 0.073
PPFASPSPLPPP	0.7006 ± 0.0069
PPFFSHDWYLRV	0.695 ± 0.076
PPFLPASHPAPS	0.824 ± 0.065
PPFPPPLLPPSP	0.732 ± 0.036
PPFSSRTRPPLC	0.67 ± 0.023
PPFVSPQRQRLV	0.669 ± 0.019
PPGAQPRSPSPL	0.771 ± 0.08
PPGPAPPHAASH	0.6421 ± 0.0029
PPGPPIAPLFPP	0.657 ± 0.0071
PPGPSVPPHRPP	0.754 ± 0.049
PPHAPLPPPTPP	0.634 ± 0.037
PPHAPTRTTSGP	0.6388 ± 0.0013
PPHLCPTSLTTL	0.642 ± 0.026
PPHNTPLAPSQY	0.659 ± 0.0094
PPHPDTSPSFPP	0.6787 ± 0.0022
PPHPGALPPAAA	0.631 ± 0.035

Sequence	protein stability index
PPHPPLPARPSP	0.681 ± 0.041
PPHPPPPLLPAP	0.715 ± 0.051
PPHPSPPTPPPH	0.687 ± 0.017
PPIPPALLLVSP	0.633 ± 0.0095
PPIVHPGSLRSA	0.673 ± 0.024
PPIVPFGSPVVL	0.728 ± 0.026
PPKEEPRWATGD	0.693 ± 0.043
PPLIPPSCSPLH	0.6864 ± 0.0027
PPLLLSPCPSLP	0.7229 ± 0.0034
PPLLPLCVPPPP	0.71 ± 0.033
PPLLPPGPPSPP	0.588 ± 0.01
PPLLPPPPRRPP	0.643 ± 0.0012
PPLLTPSVPFSS	0.715 ± 0.033
PPLPFPPLPPSP	0.74 ± 0.063
PPLPFPPPPLPP	0.613 ± 0.029
PPLPLLPSPSPL	0.753 ± 0.086
PPLPLLSTCAGA	0.69 ± 0.15
PPLPLSTLFLSA	0.712 ± 0.041
PPLPPAPPPSPP	0.652 ± 0.029
PPLPPPCPLPRN	0.7711 ± 0.0013
PPLPPPPPDFSP	0.761 ± 0.18
PPLPPPPPRPPP	0.611 ± 0.086
PPLPPPRPLSPC	0.713 ± 0.094

Sequence	protein stability index
PPLPPPRRSSPP	0.705 ± 0.02
PPLPPRSISPVL	0.737 ± 0.11
PPLPPRTPPPLS	0.704 ± 0.077
PPLPSPASPRTP	0.721 ± 0.031
PPLPSPPAHSRS	0.678 ± 0.02
PPLRLRLPPAVL	0.629 ± 0.095
PPLSPPALPPPL	0.672 ± 0.0076
PPLSSFSHHSFG	0.715 ± 0.069
PPLTPLPLGSPP	0.717 ± 0.027
PPLTRPPTPVPP	0.6626 ± 0.0048
PPLVHHSTLPPA	0.679 ± 0.022
PPLVPRTSPSPS	0.666 ± 0.012
PPLYPGSKVQLL	0.672 ± 0.011
PPNHRAGSWLAR	0.655 ± 0.012
PPNPFRHTPSIP	0.736 ± 0.027
PPNPNEPTQTPA	0.711 ± 0.013
PPNPPPPPLPPP	0.666 ± 0.068
PPPAASCLLLPL	0.699 ± 0.028
PPPALLAPPLPF	0.756 ± 0.096
PPPAPAPPLTSS	0.71 ± 0.023
PPPAPLALTPSL	0.71394 ± 0.00049
PPPAPPPCAPTP	0.713 ± 0.043
